Test results as given in publication PMC9336126 (Communications Biology, 2022).

B1: ADI-62113 Fab (Fab, V domains shown)
VH: QVQLQQSGAEVKKPGASVKLSCKASGYTFSVFPIHWVRQAPGQRLEWMGWHNAGDGDTKYSQKFQGRVTIISDTSASTAYMELSSLKSEDTAVYYCARAARPYYDRRGYFFRADYFQHWGQGTLVTVSS
VL: DIQVTQSPSSLSASVGDRVTITCQASQDIKNSLNWYQQKPGKAPKLLISDASNLETGVPSRFSGNGSGTDFTFTISSLQPEDIATYYCQQYDNLITFGPGTKVEIK
B2: ADI-62113 IgG (antibody, V domains shown)
VH: QVQLQQSGAEVKKPGASVKLSCKASGYTFSVFPIHWVRQAPGQRLEWMGWHNAGDGDTKYSQKFQGRVTIISDTSASTAYMELSSLKSEDTAVYYCARAARPYYDRRGYFFRADYFQHWGQGTLVTVSS
VL: DIQVTQSPSSLSASVGDRVTITCQASQDIKNSLNWYQQKPGKAPKLLISDASNLETGVPSRFSGNGSGTDFTFTISSLQPEDIATYYCQQYDNLITFGPGTKVEIK

What was measured:
[1] = molecular target: T1, SARS-CoV-2 spike receptor-binding domain (RBD), residues 333-529 (SARS-CoV-2 ancestral (Wuhan-Hu-1, …, UniProt P0DTC2)); assay: crystal structure; settings: both partners purified
T1 construct: also called SARS-CoV-2 RBD; wildtype RBD

[2] = molecular target: T2, SARS-CoV-2 WT RBD (Acro Biosystems, Cat #SPD-C52H3) (SARS-CoV-2 ancestral wildtype, UniProt P0DTC2); assay: ELISA; settings: both partners purified
T2 construct: also called wildtype RBD; ancestral wildtype SARS-CoV-2 RBD; source: bought: Acro Biosystems

Row | Binder | binding result [1] | binding result [2]
1 | B1 | binds | –
2 | B2 | – | binds
